Measurements from the supplement of paper PMC10567573.

B1: SLC35F2 (parent)
chain: SFMPLVIKVTSATSVNLGILTADL

Variants of: B1
Test: protein stability index of a GFP-peptide fusion (GPS, HEK-293T) (PSI 1-6); higher = more stable
Details: c terminus: a fixed tail appended
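Note: lentivirally expressed fusions sorted by FACS into six bins by GFP to DsRed ratio, PSI derived from sequencing read proportions per bin multiplied by bin number.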

In order of falling protein stability index:
1. SFMPLVIKVTSATSVNLGILHADL [T21H]  4.75
2. SFMPLVIKVTSATSVNLGILTAEL [D23E]  4.12
3. SFMPLVIKVTSATSVNLGILTCDL [A22C]  4.09
4. SFMPLVIKVTSATSVNLQILTADL [G18Q]  4.06
5. SFMPLVIKVTSATSVNLGILTIDL [A22I]  4
6. SFMPLVIKVTSATSVNLGILTAGL [D23G]  3.96
7. SFMPLVIKVTSATSVNLGILTTDL [A22T]  3.93
8. SFMPLVIKVTSATSVNLGILTMDL [A22M]  3.85
9. SFMPLVIKVTSATSVNLGILYADL [T21Y]  3.83
10. SFMPLVIKVTSATSVNLGILTALL [D23L]  3.79
11. SFMPLVIKVTSATSVNLGIYTADL [L20Y]  3.69
12. SFMPLVIKVTSATSVNLGIITADL [L20I]  3.65
13. SFMPLVIKVTSATSVNLGIVTADL [L20V]  3.65
14. SFMPLVIKVTSATSVNLGILSADL [T21S]  3.64
15. SFMPLVIKVTSATSVNLGILTWDL [A22W]  3.55
16. SFMPLVIKVTSATSVNLLILTADL [G18L]  3.54
17. SFMPLVIKVTSATSVNLGIFTADL [L20F]  3.49
18. SFMPLVIKVTSATSVNLGMLTADL [I19M]  3.44
19. SFMPLVIKVTSATSVNLGILTYDL [A22Y]  3.41
20. SFMPLVIKVTSATSVNLGILTHDL [A22H]  3.34
21. SFMPLVIKVTSATSVNLGIATADL [L20A]  3.33
22. SFMPLVIKVTSATSVNLWILTADL [G18W]  3.32
23. SFMPLVIKVTSATSVNLTILTADL [G18T]  3.29
24. SFMPLVIKVTSATSVNLNILTADL [G18N]  3.27
25. SFMPLVIKVTSATSVNLGILIADL [T21I]  3.26
26. SFMPLVIKVTSATSVNLGILRADL [T21R]  3.24
27. SFMPLVIKVTSATSVNLSILTADL [G18S]  3.19
28. SFMPLVIKVTSATSVNLRILTADL [G18R]  3.18
29. SFMPLVIKVTSATSVNLGILTVDL [A22V]  3.18
30. SFMPLVIKVTSATSVNLGGLTADL [I19G]  3.15
31. SFMPLVIKVTSATSVNLGILTGDL [A22G]  3.15
32. SFMPLVIKVTSATSVNLGIWTADL [L20W]  3.1
33. SFMPLVIKVTSATSVNLGILTAHL [D23H]  3.1
34. SFMPLVIKVTSATSVNLGFLTADL [I19F]  3.09
35. SFMPLVIKVTSATSVNLYILTADL [G18Y]  3.08
36. SFMPLVIKVTSATSVNLGIQTADL [L20Q]  3.08
37. SFMPLVIKVTSATSVNLGIHTADL [L20H]  3.07
38. SFMPLVIKVTSATSVNLGILTPDL [A22P]  3.07
39. SFMPLVIKVTSATSVNLGILTAIL [D23I]  3.05
40. SFMPLVIKVTSATSVNLGALTADL [I19A]  3
41. SFMPLVIKVTSATSVNLGCLTADL [I19C]  2.99
42. SFMPLVIKVTSATSVNLGILTEDL [A22E]  2.99
43. SFMPLVIKVTSATSVNLGILTNDL [A22N]  2.95
44. SFMPLVIKVTSATSVNLGIMTADL [L20M]  2.92
45. SFMPLVIKVTSATSVNLGILTFDL [A22F]  2.92
46. SFMPLVIKVTSATSVNLGILTAFL [D23F]  2.91
47. SFMPLVIKVTSATSVNLGILTSDL [A22S]  2.88
48. SFMPLVIKVTSATSVNLGIETADL [L20E]  2.87
49. SFMPLVIKVTSATSVNLGNLTADL [I19N]  2.86
50. SFMPLVIKVTSATSVNLGILEADL [T21E]  2.86
51. SFMPLVIKVTSATSVNLGILTQDL [A22Q]  2.86
52. SFMPLVIKVTSATSVNLGISTADL [L20S]  2.8
53. SFMPLVIKVTSATSVNLGILQADL [T21Q]  2.79
54. SFMPLVIKVTSATSVNLGVLTADL [I19V]  2.77
55. SFMPLVIKVTSATSVNLGILMADL [T21M]  2.77
56. SFMPLVIKVTSATSVNLGILTAAL [D23A]  2.74
57. SFMPLVIKVTSATSVNLGILWADL [T21W]  2.7
58. SFMPLVIKVTSATSVNLGSLTADL [I19S]  2.69
59. SFMPLVIKVTSATSVNLGKLTADL [I19K]  2.68
60. SFMPLVIKVTSATSVNLGICTADL [L20C]  2.67
61. SFMPLVIKVTSATSVNLGILTDDL [A22D]  2.67
62. SFMPLVIKVTSATSVNLGQLTADL [I19Q]  2.64
63. SFMPLVIKVTSATSVNLGILDADL [T21D]  2.61
64. SFMPLVIKVTSATSVNLGILTLDL [A22L]  2.58
65. SFMPLVIKVTSATSVNLMILTADL [G18M]  2.55
66. SFMPLVIKVTSATSVNLGITTADL [L20T]  2.55
67. SFMPLVIKVTSATSVNLGLLTADL [I19L]  2.54
68. SFMPLVIKVTSATSVNLGILVADL [T21V]  2.54
69. SFMPLVIKVTSATSVNLGILKADL [T21K]  2.52
70. SFMPLVIKVTSATSVNLGILPADL [T21P]  2.5
71. SFMPLVIKVTSATSVNLGILAADL [T21A]  2.49
72. SFMPLVIKVTSATSVNLPILTADL [G18P]  2.47
73. SFMPLVIKVTSATSVNLGHLTADL [I19H]  2.39
74. SFMPLVIKVTSATSVNLGYLTADL [I19Y]  2.38
75. SFMPLVIKVTSATSVNLGIPTADL [L20P]  2.38
76. SFMPLVIKVTSATSVNLGPLTADL [I19P]  2.37
77. SFMPLVIKVTSATSVNLGILTRDL [A22R]  2.35
78. SFMPLVIKVTSATSVNLGILLADL [T21L]  2.33
79. SFMPLVIKVTSATSVNLGILTACL [D23C]  2.29
80. SFMPLVIKVTSATSVNLGILGADL [T21G]  2.24
81. SFMPLVIKVTSATSVNLGILTKDL [A22K]  2.21
82. SFMPLVIKVTSATSVNLGIGTADL [L20G]  2.2
83. SFMPLVIKVTSATSVNLVILTADL [G18V]  2.17
84. SFMPLVIKVTSATSVNLGELTADL [I19E]  2.08
85. SFMPLVIKVTSATSVNLGRLTADL [I19R]  2.08
86. SFMPLVIKVTSATSVNLGTLTADL [I19T]  2
87. SFMPLVIKVTSATSVNLGDLTADL [I19D]  1.97
88. SFMPLVIKVTSATSVNLGINTADL [L20N]  1.97
89. SFMPLVIKVTSATSVNLGIKTADL [L20K]  1.93
90. SFMPLVIKVTSATSVNLGILNADL [T21N]  1.87
91. SFMPLVIKVTSATSVNLGILFADL [T21F]  1.85
92. SFMPLVIKVTSATSVNLGILTAML [D23M]  1.83
93. SFMPLVIKVTSATSVNLGILTAKL [D23K]  1.8
94. SFMPLVIKVTSATSVNLGIDTADL [L20D]  1.59
